The target of assay [1] is T1, six transmembrane epithelial antigen of prostate-2 (STEAP2) (human, UniProt Q8NFT2 1-490).
T1 construct: whole, on cells
T1 sequence (looked up): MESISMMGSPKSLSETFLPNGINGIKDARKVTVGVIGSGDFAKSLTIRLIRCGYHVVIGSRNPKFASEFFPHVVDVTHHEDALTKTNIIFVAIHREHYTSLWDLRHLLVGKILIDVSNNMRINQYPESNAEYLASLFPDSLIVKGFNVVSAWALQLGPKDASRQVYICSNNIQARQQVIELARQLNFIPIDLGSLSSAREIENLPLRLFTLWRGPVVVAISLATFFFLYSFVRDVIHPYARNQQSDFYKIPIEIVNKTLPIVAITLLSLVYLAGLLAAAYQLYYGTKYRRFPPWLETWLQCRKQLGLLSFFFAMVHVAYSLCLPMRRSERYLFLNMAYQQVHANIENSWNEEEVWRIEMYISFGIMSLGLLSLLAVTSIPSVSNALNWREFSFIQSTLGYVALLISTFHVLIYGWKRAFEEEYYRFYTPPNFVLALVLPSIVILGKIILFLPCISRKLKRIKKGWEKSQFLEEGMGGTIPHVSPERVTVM
Put plainly: flow cytometry on C4-2 cells expressing STEAP2. As for the experimental part:
(§1) Cell based binding assays were performed on BD FACSymphony™ A5 Cell Analyzer. To determine binding affinity of AZD6621, C4-2 cells and Jurkat (TCR neg) CD8ab+ cells expressing Steap2 and CD8ab respectively were used for the assay. The cells were harvested and resuspended in FACS buffer (DPBS-1X, 2% FBS, & 5 mM EDTA) at 2×10e6 cells/ml. Cells were seeded in U-bottom Tissue Culture treated 96 Well-plate at 50 ul/well making the cell number at 100,000 per well. The test articles (AZD6621) titration were prepared (2×) using FACS buffer with the starting working concentration of 600 nM and with 1:4 dilution up to 8 titration points. Cells (50 ul/well) were then combined with primary antibody (50 ul/well) titration and incubated at 4° C. for 1 hour. After incubation, the cells were washed 2× using 200 ul of FACS buffer and resuspended with freshly prepared FACS buffer (100 ul/well) containing secondary antibody (Anti-H+L: Goat anti-Human IgG (H+L) Cross-Adsorbed Secondary Antibody, Alexa Fluor 647 (Invitrogen #A-21445) at 1:400 dilution) & DAPI (Live/Dead stain). The secondary antibody was incubated at 4° C. for 1 hour. […] The data was analyzed with FlowJo v 10.6.1. The target receptor binding was determined using geometric mean calculation on FlowJo software detecting the positive APC signal in each well. […]

Assay [2] concerns the target T2, CD8 (cluster of differentiation 8), CD8ab (UniProt P01732 22-235; P10966 22-210).
T2 construct: whole, on cells; The method names Jurkat (TCR neg) CD8ab+ cells
Nature of the assay: flow cytometry on cells carrying CD8. As for the experimental part: as §1
(In general: A flow cytometer gives signals particle by particle.)

T2 sequence (P01732 22-235, chain 1 of 2): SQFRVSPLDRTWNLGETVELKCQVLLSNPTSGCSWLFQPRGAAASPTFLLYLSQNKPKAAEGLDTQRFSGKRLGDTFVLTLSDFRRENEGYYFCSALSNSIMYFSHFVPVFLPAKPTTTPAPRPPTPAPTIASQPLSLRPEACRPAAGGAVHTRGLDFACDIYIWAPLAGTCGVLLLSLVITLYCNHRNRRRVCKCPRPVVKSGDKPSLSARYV
T2 sequence (P10966 22-210, chain 2 of 2): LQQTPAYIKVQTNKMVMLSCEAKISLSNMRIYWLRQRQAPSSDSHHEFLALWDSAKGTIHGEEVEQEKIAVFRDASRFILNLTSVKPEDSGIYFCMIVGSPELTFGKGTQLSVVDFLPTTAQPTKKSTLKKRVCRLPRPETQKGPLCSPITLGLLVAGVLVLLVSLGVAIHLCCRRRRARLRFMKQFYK

B1: 40A3LO12-TED4-K17/E75 (other)
heavy 1: QVQLQQSGPGLVKPSQTLSLTCAISGDSVSRNSAVWNWIRQSPSRGLEWLGRTYYRSKWYNDYAVSVKSRITINPDTSKNQFSLQLNSVTPEDTAVYYCARGLRQNQFYYYMDVWGKGTTVTVSSASTKGPSVFPLAPSSKSTSGGTAALGCLVKDYFPEPVTVSWNSGALTSGVHTFPAVLQSSGLYSLKSVVTVPSSSLGTQTYICNVNHKPSNTKVDKRVEPKSCDGGGGSGGGGSEVQLVESGGALVKPGGSLRLSCAASGFTFTEAWMHWVRQAPGKQLEWVAQIKDRSQTYATYYAESVKGRFTISRDDSKNTLYLQMNSLKTEDTAVYYCRGVYYANAPFDYWGQGTLVTVSSASTKGPSVCPLAPSSKSTSGGTADLGCLVKDYFPEPVTVSWNSGALTSGVHTFPAVLQSSGLYSLSSVVTVPSSSLGTQTYICNVNHKPSNTKVDKRVEPKSVDKTHTCPPCPAPPVAGPSVFLFPPKPKDTLMISRTPEVTCVVVDVKHEDPEVKFNWYVDGVEVHNAKTKPREEQYNSTYRVVSVLTVLHQDWLNGKEYKCKVSNKALPAPIEKTISKAKGQPREPQVYTLPPCREEMTKNQVSLWCLVKGFYPSDIAVEWESNGQPENNYKTTPPVLDSDGSFFLYSKLTVDKSRWQQGNVFSCSVMHEALHNHYTQKSLSLSPGK
light 1: not shown
heavy 2: EVQLLESGGGLVQPGGSLRLSCAASGFTFDDYAIGWFRQAPGKEREGVSCIRVSDGSTYYADSVKGRFTISRDNSKNTLYLQMNSLRAEDTAVYYCAAGSLYTCVQSIVWPARPYYDMDYWGQGTLVTVSSGGGGSGGGGSQVQLQQSGPGLVKPSQTLSLTCAISGDSVSRNSAVWNWIRQSPSRGLEWLGRTYYRSKWYNDYAVSVKSRITINPDTSKNQFSLQLNSVTPEDTAVYYCARGLRQNQFYYYMDVWGKGTTVTVSSASTKGPSVFPLAPSSKSTSGGTAALGCLVKDYFPEPVTVSWNSGALTSGVHTFPAVLQSSGLYSLKSVVTVPSSSLGTQTYICNVNHKPSNTKVDKRVEPKSCDKTHTCPPCPAPPVAGPSVFLFPPKPKDTLMISRTPEVTCVVVDVKHEDPEVKFNWYVDGVEVHNAKTKPREEQYNSTYRVVSVLTVLHQDWLNGKEYKCKVSNKALPAPIEKTISKAKGQPREPQVCTLPPSREEMTKNQVSLSCAVKGFYPSDIAVEWESNGQPENNYKTTPPVLDSDGSFFLVSKLTVDKSRWQQGNVFSCSVMHEALHNHYTQKSLSLSPGK
light 2: DIVMTQSPLSLPVTPGEPASISCRSSQSLVHNTGNTYLSWYLQKPGQSPQSLIYKVSNRASGVPDRFSGSGSGTDFTLKISRVEAEDVGVYYCGQGTQAPFTFGSGTKVEIKGQPKAAPSVRLFPPCSEELQANKATLVCLISDFYPGAVTVAWKADSSPVKAGVETTTPSKQSNNKYAASSYLSLTPEQWKSHRSYSCQVTHEGSTVEKTVAPTEVS
notes: also called TED4 LO12
Take B1: the binding result in assay [1] and in assay [2] was “binds” throughout.

The record behind these values is US20250059295A1 (AstraZeneca / MedImmune, published 2025).
